According to patent publication US20230365705A1 (DYNAMICURE BIOTECHNOLOGY, published 2023):

T1: Human CD93 on cells (human CD93 expressing CHO cells; HUVEC, U937 and KG1a cells) (human, UniProt Q9NPY3 22-652)
T1 construct: whole, on cells; also called hCD93 expressing CHO cells; hCD93 CHO cells
T1 sequence (looked up): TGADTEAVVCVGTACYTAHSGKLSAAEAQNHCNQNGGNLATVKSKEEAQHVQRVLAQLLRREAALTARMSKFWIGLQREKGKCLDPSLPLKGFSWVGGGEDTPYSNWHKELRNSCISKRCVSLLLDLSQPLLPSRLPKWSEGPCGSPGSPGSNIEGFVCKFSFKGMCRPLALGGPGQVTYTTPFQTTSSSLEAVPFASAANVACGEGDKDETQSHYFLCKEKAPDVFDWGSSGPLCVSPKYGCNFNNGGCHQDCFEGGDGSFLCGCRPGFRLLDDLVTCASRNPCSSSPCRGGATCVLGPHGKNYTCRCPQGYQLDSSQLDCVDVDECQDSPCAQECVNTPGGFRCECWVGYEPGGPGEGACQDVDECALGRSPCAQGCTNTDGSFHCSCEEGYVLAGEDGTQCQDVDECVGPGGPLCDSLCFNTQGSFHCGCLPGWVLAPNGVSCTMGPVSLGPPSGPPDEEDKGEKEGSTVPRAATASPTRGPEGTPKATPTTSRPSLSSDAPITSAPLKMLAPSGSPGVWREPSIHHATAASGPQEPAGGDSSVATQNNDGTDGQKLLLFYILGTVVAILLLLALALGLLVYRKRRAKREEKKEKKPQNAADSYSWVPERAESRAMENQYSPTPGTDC


Tests used:
[1] = target: T1, Human CD93 on cells (human CD93 …); assay: flow cytometry titration on U937 cells -human serum; column head printed kd, unit from the axis log (concentration (M))
Protocol: Cells were quenched with media then counted. Cells were resuspended in FACS buffer (ice cold PBS with 0.5% BSA) and put on ice ˜20 min. 5×10⁴ cells were seeded per well in 100 μL and incubated with serial diluted anti-CD93 antibodies in 100 μL on ice for 2 hours. Samples were then washed by spinning samples at 1200 rpm for 5 minutes. Media was discarded and cells were resuspended in 200 μL ice cold FACS buffer. Cells were washed again and resuspended in 100 μL of secondary Antibody, AlexaFluor647 conjugated anti-human IgG or anti-mouse IgG antibodies (Jackson ImmunoResearch), diluted 1:500 in FACS buffer. Plates were covered with foil to protect from light and were incubated for 1 hour on ice. Samples were then washed again and resuspended in 200 μL ice cold FACS buffer. Cells were washed again and resuspended in 200 μL fixing solution (PBS with 1% formaldehyde). Samples were stored at 4° C. covered in foil, ands were subsequently acquired in NovoCyte Flow Cytometer and analyzed by NovoExpress software.

[2] = target: T1, Human CD93 on cells (human CD93 …); assay: flow cytometry titration on HUVEC cells +human serum; column head printed kd, unit from the axis log (concentration (M))
Protocol: (§1) Recombinant parental anti-CD93 antibodies were evaluated for their ability to bind to HUVEC cells in the presence or absence of human serum. […] Antibodies were purified using Protein G Sepharose. The resulting antibodies were tested for its binding capacity to a variety of cells that express CD93. […] Cells were quenched with media then counted. Cells were resuspended in FACS buffer (ice cold PBS with 0.5% BSA) and human serum was added to 20% (10% final volume) and put on ice for approximately 20 minutes. 5×10⁴ cells were seeded per well in 100 μL media and incubated with serial diluted anti-CD93 antibodies in 100 μL on ice for 2 hours. Cells were then washed by spinning cells at 1200 rpm for 5 min. Media was discarded and cells were resuspended in 200 μL ice cold FACS buffer. The wash step was repeated and cells were resuspended in 100 μL of secondary antibody, AlexaFluor647 conjugated anti-human IgG or anti-mouse IgG antibodies (Jackson ImmunoResearch), diluted 1:500 in FACS buffer. Plates were blocked from light and incubated 1 hour at 4° C. Cells were then washed again then were resuspended in 200 μL ice cold FACS buffer. Cells were washed again and resuspended in 200 μL fixing solution (PBS with 1% formaldehyde). Samples were stored at 4° C. covered in foil, then were acquired in NovoCyte Flow Cytometer and analyzed by NovoExpress software.

[3] = target: T1, Human CD93 on cells (human CD93 …); assay: flow cytometry titration on HUVEC cells -human serum; column head printed kd, unit from the axis log (concentration (M))
Protocol: as §1

[4] = target: T1, Human CD93 on cells (human CD93 …); assay: flow cytometry titration on human CD93 CHO cells; column head printed kd, unit from the axis log (concentration (M))
Protocol: Cells were quenched with media then counted. Cells were resuspended in FACS buffer (ice cold PBS with 0.5% BSA) and human serum was added to 20% (10% final volume) and put on ice for approximately 20 minutes. 5×10⁴ cells were seeded per well in 100 μL and incubated with serial diluted anti-CD93 antibodies in 100 μL on ice for 2 hours. Samples were then washed by spinning samples at 1200 rpm for 5 minutes. Media was discarded and cells were resuspended in 200 μL ice cold FACS buffer. Cells were washed again and resuspended in 100 μL of secondary Antibody, AlexaFluor647 conjugated anti-human IgG or anti-mouse IgG antibodies (Jackson ImmunoResearch), diluted 1:500 in FACS buffer. Plates were covered with foil to protect from like and incubated for 1 hour on ice. Cells were washed again resuspended in 200 μL ice cold FACS buffer. Cells were washed again and were resuspended in 200 μL fixing solution (PBS with 1% formaldehyde). Samples were stored at 4° C. covered in foil, then were acquired in NovoCyte Flow Cytometer and analyzed by NovoExpress software.

[5] = target: T1, Human CD93 on cells (human CD93 …); assay: flow cytometry, CHO cells overexpressing human CD93, antibody 0.01ug, mIgG1 as control, APC-A

Kd [1]	Kd [2]	Kd [3]	Kd [4]	M2 gate, % of cells [5]	Binder
62.9 pM	314 pM	174 pM	140 pM	–	Recombinant parental 16E4 with a human CH1 domain and mouse IgG1 CH2 and CH3 Fc domains (antibody, V domains shown) VH: QVQLQQPGAELVKPGASVKLSCKASGYTFTSYWMHWVKQRPGQGLEWIGEIDPSASYTYYNQKFKGKATLTVDKSSSTAYMQLSSLTSEDSAVYYCARSVYYGNKYFDVWGAGTTVTVSS VL: not shown
23.4 pM	3430 pM	741 pM	75.7 pM	–	Recombinant parental 7F3 with a human CH1 domain and mouse IgG1 CH2 and CH3 Fc domains (antibody, V domains shown) VH: QVQLQQSGADLVRPGASVKLSCKASGYTFTDYEMHWVKQTPVYGLEWIGGIDPETGDTAYNQNFKGKATLTADKSSSAAYMELRSLTSEDSAVYYCTNYGNLYYYAMDYWGQGTSVTVSS VL: ENVLTQSPAIMSASPGEKVTMTCRASSSVSSSYLHWYQQKSGASPKLWIYSTSNLAFGVPARFSGSGSGTSYSLTISSVEAEDAATYYCQQYSGYPLTFGSGTKLEIK
66.6 pM	196 pM	111 pM	163 pM	98.4%	Recombinant parental 17B10 with a human CH1 domain and mouse IgG1 CH2 and CH3 Fc domains (antibody, V domains shown) VH: QVQLQQSGPELVKPGASVKISCKASGYAFSSYWLNWVKQRPGKGLEWFGRIYPGDGDTDYNGKFKGKATLTADKSSSTAYMQLRSLTSEDSAVYFCVRGDGYWAMDYWGQGTSVTVSS VL: DIVMTQAAFSNPVTLGTSASISCRFSKSLLHSNGITYLYWYLQKPGQSPQLLIYQMSNLASGVPDRFSSSGSGTDFTLRISRVEAEDVGVYYCAQNLELPWTFGGGTKLEIK
